{
  "source": "patent US20060177448A1",
  "about": "“Inhibiting HER2 shedding with matrix metalloprotease antagonists” (Genentech, Inc., priority 2005, published 2006)",
  "test_system": "SKBR-3 cells",
  "experiment": "HER2 ECD ELISA of conditioned media (HER2 shedding), SKBR-3 cells",
  "type": "cell-based, human",
  "conditions": "1 μg/ml",
  "protocol": "BT 474, MCF-7, and SKBR-3 cells were maintained in high-glucose DMEM:Ham's F12 (50:50) supplemented with 10% heat-inactivated FBS and 2 mM L-Glutamine. […] Cell lines were maintained at 37° C. in a humidified incubator supplied with 5% CO2. BT 474 and SKBR-3 cells were transiently transfected with constructs as described by electroporation using kit V according to the manufacturer's instructions (AMAXA™).\nSerum was diluted 1:50 using assay buffer (PBS/0.5% BSA, 0.05% TWEEN® 20/10 ppm PROCLIN® 300/0.2% BGG/0.25% CHAPS/0.15 M NaCl/5mM EDTA (pH 7.4) followed by additional 1:2 serial dilutions. Shed HER2 was captured using a goat anti-HER2 polyclonal antibody (Genentech) onto NUNC® Maxisorp plates and detected using a biotin-conjugated rabbit anti-HER2 polyclonal antibody (Genentech) followed by a AMDEX™-strepavidin-horseradish peroxidase antibody (Amersham Pharmacia Biotech) following a procedure described previously (Sias et al., J. Immunol. Meth. 109:219-27 (1990)). For cell culture experiments, cells were treated as indicated and conditioned media was collected and diluted in assay buffer serially 1:2. The concentration of shed HER2 in serum or in conditioned media was determined from a four-parameter fit of a standard curve using purified recombinant HER2 ECD protein (Genentech) as a standard.\nThe pSIREN shRNA construct(s) or vector alone were transiently transfected into SKBR-3 and BT 474 cells using AMAXA™ kit V following manufacturer's recommendations. After 48 hours, conditioned media was collected and assayed for shed HER2 by HER2 ELISA and the cells were lysed directly on the plate using 2×Sample buffer.",
  "data": [
    {"molecule": "Timp-3: naturally occurring peptides that regulate metalloprotease activity (protein, UniProt P35625 24-211, looked up) Metalloproteinase inhibitor 3: CTCSPSHPQDAFCNSDIVIRAKVVGKKLVKEGPFGTLVYTIKQMKMYRGFTKMPHVQYIHTEASESLCGLKLEVNKYQYLLTGRVYDGKMYTGLCNFVERWDQLTLSQRKGLNYRYHLGCNCKIKSCYYLPCFVTSKNECLWTDMLSNFGYPGYQSKHYACIRQKGGYCSWYRGWAPPDKSIINATDP", "values": [
      {"measurement": "HER2 ECD levels in conditioned media", "value": "reduced HER2 ECD levels"}
    ]}
  ]
}
